Target: GST-gc-p300/CH1 fusion protein (CH1 domain of grass carp p300) (grass carp (Ctenopharyngodon idella))

| gcHIF-1-mediated transactivation of HRE-luciferase activity in CHO cells, change in the presence of gcCITED3b [%] | gcHIF-1-mediated transactivation of HRE-luciferase activity in CHO cells, change in the presence of gcCITED3a [%] | Substance |
| --- | --- | --- |
| -40 |  | gcCITED3b (grass carp CITED3b), in vitro translated (natural protein) |
|  | -40 | gcCITED3a (grass carp CITED3a), in vitro translated (natural protein) |
